Experimental data taken from PMC8922275, “DNA-Dependent Binding of Nargenicin to DnaE1 Inhibits Replication in Mycobacterium tuberculosis” (ACS Infectious Diseases, 2022).

Assays:
[1] = molecular target: DnaE (Staphylococcus aureus, UniProt Q5HF71); assay: real-time fluorescence-quench DNA polymerase assay (text […]; Figure […] legend […]); format: biochemical
[2] = molecular target: T1, DNA polymerase III α (Pol IIIα) (Escherichia coli, UniProt P10443); assay: real-time fluorescence-quench DNA polymerase assay; format: biochemical
T1 construct: gene dnaE
T1 sequence (P10443 whole entry): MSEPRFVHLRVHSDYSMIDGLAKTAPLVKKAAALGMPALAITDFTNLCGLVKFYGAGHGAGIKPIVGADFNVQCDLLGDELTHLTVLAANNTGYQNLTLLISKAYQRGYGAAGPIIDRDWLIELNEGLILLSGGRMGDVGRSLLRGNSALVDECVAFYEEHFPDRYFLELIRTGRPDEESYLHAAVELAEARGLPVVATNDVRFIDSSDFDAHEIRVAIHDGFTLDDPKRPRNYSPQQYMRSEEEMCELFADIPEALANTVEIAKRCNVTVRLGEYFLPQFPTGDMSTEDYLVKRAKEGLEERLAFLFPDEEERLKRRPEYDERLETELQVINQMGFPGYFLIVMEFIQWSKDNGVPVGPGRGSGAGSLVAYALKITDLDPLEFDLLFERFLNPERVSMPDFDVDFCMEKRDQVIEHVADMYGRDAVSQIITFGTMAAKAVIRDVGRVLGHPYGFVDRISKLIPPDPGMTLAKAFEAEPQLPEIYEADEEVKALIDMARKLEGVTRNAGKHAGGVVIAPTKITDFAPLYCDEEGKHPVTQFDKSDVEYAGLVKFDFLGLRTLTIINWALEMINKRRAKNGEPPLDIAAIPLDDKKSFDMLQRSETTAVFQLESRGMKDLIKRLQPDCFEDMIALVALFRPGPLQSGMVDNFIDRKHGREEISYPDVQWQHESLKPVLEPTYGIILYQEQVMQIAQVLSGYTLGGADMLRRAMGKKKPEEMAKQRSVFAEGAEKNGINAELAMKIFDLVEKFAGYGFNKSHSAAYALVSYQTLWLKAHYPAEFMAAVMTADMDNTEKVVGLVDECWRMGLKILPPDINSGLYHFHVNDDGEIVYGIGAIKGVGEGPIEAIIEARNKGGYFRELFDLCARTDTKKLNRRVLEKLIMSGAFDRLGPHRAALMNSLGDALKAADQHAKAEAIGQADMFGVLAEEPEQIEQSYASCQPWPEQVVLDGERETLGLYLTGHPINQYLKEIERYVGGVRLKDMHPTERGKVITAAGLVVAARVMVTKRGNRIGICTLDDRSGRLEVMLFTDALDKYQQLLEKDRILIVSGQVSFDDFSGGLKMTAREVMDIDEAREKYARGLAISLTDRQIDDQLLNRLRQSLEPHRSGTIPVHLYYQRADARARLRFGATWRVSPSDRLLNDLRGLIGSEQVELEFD

[3] = molecular target: T2, DnaE1 (Mycobacterium tuberculosis, UniProt P9WNT7); assay: ([…] Å) with DNA; […]; format: biochemical
T2 construct: full-length
T2 sequence (P9WNT7 1-1184): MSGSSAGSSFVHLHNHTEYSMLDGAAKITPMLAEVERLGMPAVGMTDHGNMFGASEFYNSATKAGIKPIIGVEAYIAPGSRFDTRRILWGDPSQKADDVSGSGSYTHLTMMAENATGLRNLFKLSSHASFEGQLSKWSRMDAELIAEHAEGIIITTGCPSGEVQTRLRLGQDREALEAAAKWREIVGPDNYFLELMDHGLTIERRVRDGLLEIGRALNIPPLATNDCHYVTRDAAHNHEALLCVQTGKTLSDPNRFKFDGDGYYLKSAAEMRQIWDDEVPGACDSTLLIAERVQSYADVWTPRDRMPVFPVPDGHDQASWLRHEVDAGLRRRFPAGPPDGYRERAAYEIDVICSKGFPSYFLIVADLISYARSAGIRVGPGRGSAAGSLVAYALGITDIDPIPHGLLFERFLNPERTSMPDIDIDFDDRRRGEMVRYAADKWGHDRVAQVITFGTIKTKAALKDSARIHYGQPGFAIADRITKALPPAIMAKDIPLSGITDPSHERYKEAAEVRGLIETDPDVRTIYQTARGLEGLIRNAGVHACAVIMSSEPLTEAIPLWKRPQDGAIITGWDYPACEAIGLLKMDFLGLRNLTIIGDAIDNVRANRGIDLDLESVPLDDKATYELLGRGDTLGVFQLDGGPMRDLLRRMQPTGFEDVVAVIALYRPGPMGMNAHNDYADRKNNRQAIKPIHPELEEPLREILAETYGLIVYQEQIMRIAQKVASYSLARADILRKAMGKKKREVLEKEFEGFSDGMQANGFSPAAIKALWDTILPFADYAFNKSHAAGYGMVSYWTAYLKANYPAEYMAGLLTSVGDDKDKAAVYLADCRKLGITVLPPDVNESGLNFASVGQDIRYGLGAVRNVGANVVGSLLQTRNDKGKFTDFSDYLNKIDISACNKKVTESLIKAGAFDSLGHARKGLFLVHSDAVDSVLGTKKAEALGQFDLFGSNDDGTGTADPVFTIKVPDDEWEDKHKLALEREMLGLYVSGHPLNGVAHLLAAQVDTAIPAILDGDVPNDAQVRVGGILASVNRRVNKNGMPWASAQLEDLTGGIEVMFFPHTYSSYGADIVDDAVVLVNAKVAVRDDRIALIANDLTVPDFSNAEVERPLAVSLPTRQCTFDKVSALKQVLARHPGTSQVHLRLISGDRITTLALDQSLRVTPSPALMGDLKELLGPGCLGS

[4] = molecular target: T3, DnaE1 (replicative DNA polymerase) (Mycobacterium tuberculosis, UniProt P9WNT7 1-1184); assay: cryo-EM structure (2.9 Å); 10 uM nargenicin, 5 mM MgCl2; conditions: protein: recombinant
T3 sequence: T2 sequence (P9WNT7 1-1184)

[5] = molecular target: T3, DnaE1 (replicative DNA polymerase); assay: fluorescence anisotropy; conditions: protein: recombinant; label: 5'-Cy3 on primer (strand 1); 24 bp duplex, 5' overhang 30 nt on template
[6] = molecular target: DnaE S765L (Staphylococcus aureus, UniProt Q9F1K0 1-1065, S765L); assay: fluorescence anisotropy; Anisotropy: 5 nM DNA, 25 mM HEPES pH 7.5, 50 mM potassium glutamate, 2 mM DTT, 0.5 mg/mL BSA, 24 °C. Cryo-EM: 20 mM PIPES pH 7.0, 50 mM potassium glutamate, 5 mM MgCl2, 2 mM DTT, 0.01% Tween-20; conditions: protein: recombinant; label: 5'-Cy3 on primer (strand 1); 24 bp duplex, 5' overhang 30 nt on template
[7] = molecular target: T4, DnaE (replicative DNA polymerase) (Staphylococcus aureus, UniProt Q9F1K0 1-1065); assay: as above; conditions: protein: recombinant; label: 5'-Cy3 on primer (strand 1); 24 bp duplex, 5' overhang 30 nt on template
T4 sequence: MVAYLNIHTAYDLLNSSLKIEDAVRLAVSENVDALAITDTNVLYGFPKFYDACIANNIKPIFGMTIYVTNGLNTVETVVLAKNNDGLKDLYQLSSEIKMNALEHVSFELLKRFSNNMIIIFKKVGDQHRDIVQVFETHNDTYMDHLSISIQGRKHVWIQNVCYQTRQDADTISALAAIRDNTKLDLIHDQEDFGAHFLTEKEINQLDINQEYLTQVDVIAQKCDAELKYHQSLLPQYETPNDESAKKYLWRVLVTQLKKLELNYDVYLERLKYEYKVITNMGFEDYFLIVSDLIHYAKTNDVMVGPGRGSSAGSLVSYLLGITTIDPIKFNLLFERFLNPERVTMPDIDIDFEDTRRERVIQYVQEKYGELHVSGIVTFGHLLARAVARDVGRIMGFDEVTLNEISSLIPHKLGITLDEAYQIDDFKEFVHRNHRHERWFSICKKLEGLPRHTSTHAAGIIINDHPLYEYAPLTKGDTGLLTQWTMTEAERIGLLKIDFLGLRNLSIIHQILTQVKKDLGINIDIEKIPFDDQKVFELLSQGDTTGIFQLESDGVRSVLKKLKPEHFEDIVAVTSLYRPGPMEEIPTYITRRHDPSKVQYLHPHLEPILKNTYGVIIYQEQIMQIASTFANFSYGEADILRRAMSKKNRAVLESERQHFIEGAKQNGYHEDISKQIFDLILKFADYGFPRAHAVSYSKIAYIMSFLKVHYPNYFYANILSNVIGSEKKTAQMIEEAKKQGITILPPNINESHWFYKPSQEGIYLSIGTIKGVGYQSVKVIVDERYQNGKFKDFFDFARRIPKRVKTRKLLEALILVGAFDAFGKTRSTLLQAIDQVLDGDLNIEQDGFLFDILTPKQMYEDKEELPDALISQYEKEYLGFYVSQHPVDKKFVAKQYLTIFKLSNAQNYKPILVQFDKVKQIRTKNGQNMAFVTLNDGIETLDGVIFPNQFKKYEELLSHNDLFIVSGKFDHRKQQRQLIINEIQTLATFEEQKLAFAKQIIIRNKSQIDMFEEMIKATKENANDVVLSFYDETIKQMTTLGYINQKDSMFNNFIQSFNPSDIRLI

[8] = molecular target: Pol IIIα (replicative DNA polymerase) (Escherichia coli, UniProt P10443 1-1160); assay: as above; conditions: protein: recombinant; label: 5'-Cy3 on primer (strand 1); 24 bp duplex, 5' overhang 30 nt on template

In the case of `COC1CC2C=CC3C4OC2(/C(C)=C/C(C)C(C(C)O)OC1=O)C3C(O)C(C)C4OC(=O)c1ccc[nH]1` (centres unmarked) [nargenicin], the IC50 [1] is reported as 6 nM, the IC50 [2] is reported as 13000 nM and the IC50 [3] is reported as 125 nM.

B1: cryo-EM primer/template substrate (dsDNA)
DNA 1: GCACCTAAAGTTGGGAGTCCTTCGTCCTT
DNA 2: GATAGAGCAGAAGGACGAAGGACTCCCAACTTTAGGTG
modifications: phosphorothioate bond between the last two nt of the primer (T*T)
B1: binds [4].

B2: primed DNA substrate (anisotropy) (dsDNA)
DNA 1: GGTAACGCCAGGGTTTTCCCAGTC
DNA 2: CGCTCACTGGCCGTCGTTTTACAACGTCGTGACTGGGAAAACCCTGGCGTTACC
B2 was tested, and the Kd [5] was 250 nM, the Kd [6] was 85 nM and the Kd [7] was 6 nM. It also gave a Kd [8] of 12000 nM.
